Reference: article PMC8749428

What was measured:
PltB-Strep = assay: SEC
[1] = target: PltA-CdtB-His6 (Salmonella enterica serovar Typhi) (UniProt Q8Z6A7); assay: pull-down
[2] = target: PltC (untagged, His tag removed); assay: crystal structure
PltC-His6 = assay: SEC

PltB-Strep (natural protein) was tested, and the stoichiometry N (PltB-Strep) was 5.

“PltC (untagged, His tag removed) (natural protein)” showed a fold copurified relative to PltB [1] of 2 fold and a stoichiometry N [2] of 5.

In the case of PltC-His6 (natural protein), the stoichiometry N (PltC-His6) is reported as 5.
